We go through eight sequences from the DeepSol protein solubility set.

A short description of this data set: soluble on expression in E. coli; label from the status in PepcDB or PDB records.
Turning to “MAHHHHHHMSAEGLSRFFTENLTEEGRSDLNQWEAKTLEFAQRVNRDGCEGVAFITSGGTAVPLEVHAVRFVTNFSSGGRGAVLVEELLARGWACILLRSKTSQLPFRRLVDNMTTEQFFAELNAPQKSCDVSAAIEAYTKYKSRFLEIPYYTVVEYLYLFSLLTGTLSHRAECLRQTPMMLLAAAAVSDYYIPESRLSHHKMSGGDGLTIQFNNVPKILDLISEEWHGSSRAAPRYLITFKLETEEEQLKAKALRNLGLYRCDAVVANMLQNYRERVLVFWNGEEQNPTLLHRSPNGSVESLMIDHVLQRIKNHAKGCGMQYKLEGRRR”, the “soluble on expression in E. coli” value was “soluble”.
The value for “MKPKFETVELLSPTGEVVELKVVKRGLAQARPEPVDRNKPAWIKAPLPTGPRYQALKAMVRELRLHTVCQEALCPNIGECWTHGTLTVMILGDICTRACKFCAVHTGNPKGLVDPEEPRRVAEAIARMGVRYVVLTSVDRDDLPDGGASHFAATIRAIKERAPGVLVEALTPDFQGDLKAVETVLAANPEVYAQNLETVRRLTPKVRDPRAGYEQTLKVLAHAKKVRPDILTKSSLMLGLGETEEEILEAMRDLRAAGVDILTLGQYLRPTPAHLPVARYVPPEDFKRYEAWGYELGFREVFAGPLVRSSYRADRVFLEATQR” was “not soluble”; that for “MADHNNTPPFDLTKLDHYIKYQPREEAEDFFVHVEVKVLGKGSSPLEISFSTSVYEFVWEDEDCYELVELYEFFTEDAGIDAFEAQFLVNDLILYVNKTTRPLDEDFTGVFKLMAEVTLKPVQLNHAGSQKTESQQP” was “soluble”.
With “MDKKIIGIDLGGTTIKFAILTTDGVVQQKWSIETNILEDGKHIVPSIIESIRHRIDLYNMKKEDFVGIGMGTPGSVDIEKGTVVGAYNLNWTTVQPVKEQIESALGIPFALDNDANVAALGERWKGAGENNPDVIFITLGTGVGGGIVAAGKLLHGVAGCAGEVGHVTVDPNGFDCTCGKRGCLETVSSATGVVRVARHLSEEFAGDSELKQAIDDGQDVSSKDVFEFAEKGDHFALMVVDRVCFYLGLATGNLGNTLNPDSVVIGGGVSAAGEFLRSRVEKYFQEFTFPQVRNSTKIKLAELGNEAGVIGAASLALQFSKEK” the entry was “soluble”.
With “MTGKILVIGSTGTIGTPLVKALVARGESVKAASRSGKPTNGAEGVRFDYTDHATFADAFDGVDRLFLMLAGGRLDTIDALTPVVEEAARRKVKIVFLSVLGVDADDSIPYRQIELKIIASGTPYVILRPNWFADNFHSYWKAGIEHGQIAVPGGEGKSSFIDVRDIADSAAAALTSDAFNGKAFNLTGPQAFGYAEAAALISQAIGKPVSYSAVSDDVFIGILTGAGVPQDYASFLASIFYPVREGWTAVVTGDAETLTGHAPRSLETYIADNLDRLKG” the entry was “not soluble”; with “MSLRIDHSGSCVWLKMQKPRFSFAVLLPSETMRRQFTRNTSNMKTELTLLEQTLTLHRFPKRNNETLQAWDAGDEYLIQHVEQLALPESSHIVIINDHFGTLSCWFSQKHKVSMMSDSYIAHQATQANLQQNQRPPVQLLTTLDPVPNDASVVLLQLPKSNRHLVWILSQLRKALSPNIPIIAVNKAKEIHTSTLNLFEKHLGPTTTSLAWKKHRLVFSSATVNPANEVNPECGWSIEPYAITLTNLPNVYSGESLDLGSRFILEHLPADPTLEDFIDLGCGNGVLSVRLGQLNPQAKITCVDESFMAIASAQKNLHDNLGKRDIHCIANNCLDGFPAHSSSMIVCNPPFHQQQTITDHIAWQMFCDSKHVLKKGGKLWVIGNRHLGYDVKLARLFGKSHVRVIANNSKFVILQAIKSEGHHHHHH”, “not soluble”.
Take “MSLCCISFRVGTGPCVTSGADRLTKGPLRKSAPVSQPEANPKSRSFSGNFLNHTFRRENPMSEITSLVTAEAVKDVLRSEEVRSALKQKLRHNLEARLDAEVDAILDELLGVQAEPPTEAGDTTAESGEVQPESPVADATEPQPESVMMLEGHHHHHH”: the “soluble on expression in E. coli” value is “soluble”.
Turning to “MTNVLIEDLKWRGLIYQQTDEQGIEDLLNKEQVTLYCGADPTADSLHIGHLLPFLTLRRFQEHGHRPIVLIGGGTGMIGDPSGKSEERVLQTEEQVDKNIEGISKQMHNIFEFGTDHGAVLVNNRDWLGQISLISFLRDYGKHVGVNYMLGKDSIQSRLEHGISYTEFTYTILQAIDFGHLNRELNCKIQVGGSDQWGNITSGIELMRRMYGQTDAYGLTIPLVTKSDGKKFGKSESGAVWLDAEKTSPYEFYQFWINQSDEDVIKFLKYFTFLGKEEIDRLEQSKNEAPHLREAQKTLAEEVTKFIHGEDALNDAIRISQALFSGDLKSLSAKELKDGFKDVPQVTLSNDTTNIVEVLIETGISPSKRQAREDVNNGAIYINGERQQDVNYALAPEDKIDGEFTIIRRGKKKYFMVNYQ”, the “soluble on expression in E. coli” value is “soluble”.
